Measured values: US20090048117

Assays:
[1] = tested on: T1, GST-NIP45 fusion protein (bacterially expressed, full length NIP45)
T1 sequence: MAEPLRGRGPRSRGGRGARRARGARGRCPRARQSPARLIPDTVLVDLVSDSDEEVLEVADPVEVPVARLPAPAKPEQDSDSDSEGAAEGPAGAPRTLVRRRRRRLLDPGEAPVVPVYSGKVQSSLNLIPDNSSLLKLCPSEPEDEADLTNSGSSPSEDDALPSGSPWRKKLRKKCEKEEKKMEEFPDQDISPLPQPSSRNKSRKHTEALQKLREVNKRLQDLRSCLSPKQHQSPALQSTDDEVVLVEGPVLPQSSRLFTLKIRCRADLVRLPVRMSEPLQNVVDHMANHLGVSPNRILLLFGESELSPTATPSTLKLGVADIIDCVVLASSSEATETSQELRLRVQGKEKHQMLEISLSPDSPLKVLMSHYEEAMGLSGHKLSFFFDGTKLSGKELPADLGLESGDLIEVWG

Row | Substance | in vitro methylation assay with affinity purified PRMTs and GST-NIP45 [1] | in vitro methylation assay with recombinant proteins (Histone H3)
1 | Flag epitope tagged CARM1 immunoprecipitated from 293 cell extracts | In this assay, only PRMT1 was capable of methylating NIP45 | –
2 | Flag epitope tagged PRMT3 immunoprecipitated from 293 cell extracts | In this assay, only PRMT1 was capable of methylating NIP45 | –
3 | Flag epitope tagged PRMT5 immunoprecipitated from 293 cell extracts | In this assay, only PRMT1 was capable of methylating NIP45 | –
4 | GST-CARM1 | – | CARM1 did methylate histone H3 (lane 7)
